Measurements taken from paper PMC2742162.

Assays:
pro-N-cadherin (human) = pro-N-cadherin (human) (UniProt P19022); assay: co-IP
pro-E-cadherin (human) = pro-E-cadherin (human) (UniProt P12830); assay: co-IP
UniProt P12830, sequence (P12830 23-882): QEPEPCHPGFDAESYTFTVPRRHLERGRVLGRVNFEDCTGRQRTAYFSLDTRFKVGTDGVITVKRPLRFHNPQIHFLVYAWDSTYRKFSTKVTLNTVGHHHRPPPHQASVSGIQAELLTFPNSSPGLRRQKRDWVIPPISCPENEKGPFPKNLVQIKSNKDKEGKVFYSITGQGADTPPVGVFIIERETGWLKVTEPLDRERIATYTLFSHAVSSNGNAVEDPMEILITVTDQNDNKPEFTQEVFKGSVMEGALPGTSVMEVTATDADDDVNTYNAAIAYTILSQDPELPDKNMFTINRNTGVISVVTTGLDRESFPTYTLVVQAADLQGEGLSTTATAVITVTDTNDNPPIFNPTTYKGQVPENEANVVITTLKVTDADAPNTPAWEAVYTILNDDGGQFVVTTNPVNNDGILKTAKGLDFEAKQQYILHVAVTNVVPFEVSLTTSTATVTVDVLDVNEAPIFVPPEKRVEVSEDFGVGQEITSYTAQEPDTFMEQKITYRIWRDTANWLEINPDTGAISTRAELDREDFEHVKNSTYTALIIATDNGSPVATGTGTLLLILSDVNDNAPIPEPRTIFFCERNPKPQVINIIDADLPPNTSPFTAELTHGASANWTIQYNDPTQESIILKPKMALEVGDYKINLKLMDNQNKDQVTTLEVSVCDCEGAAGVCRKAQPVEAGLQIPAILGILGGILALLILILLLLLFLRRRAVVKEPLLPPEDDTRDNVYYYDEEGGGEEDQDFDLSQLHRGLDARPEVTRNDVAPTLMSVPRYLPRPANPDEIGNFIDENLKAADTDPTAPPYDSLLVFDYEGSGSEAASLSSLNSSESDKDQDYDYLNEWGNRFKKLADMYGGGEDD

UniProt P19022, sequence (P19022 26-906): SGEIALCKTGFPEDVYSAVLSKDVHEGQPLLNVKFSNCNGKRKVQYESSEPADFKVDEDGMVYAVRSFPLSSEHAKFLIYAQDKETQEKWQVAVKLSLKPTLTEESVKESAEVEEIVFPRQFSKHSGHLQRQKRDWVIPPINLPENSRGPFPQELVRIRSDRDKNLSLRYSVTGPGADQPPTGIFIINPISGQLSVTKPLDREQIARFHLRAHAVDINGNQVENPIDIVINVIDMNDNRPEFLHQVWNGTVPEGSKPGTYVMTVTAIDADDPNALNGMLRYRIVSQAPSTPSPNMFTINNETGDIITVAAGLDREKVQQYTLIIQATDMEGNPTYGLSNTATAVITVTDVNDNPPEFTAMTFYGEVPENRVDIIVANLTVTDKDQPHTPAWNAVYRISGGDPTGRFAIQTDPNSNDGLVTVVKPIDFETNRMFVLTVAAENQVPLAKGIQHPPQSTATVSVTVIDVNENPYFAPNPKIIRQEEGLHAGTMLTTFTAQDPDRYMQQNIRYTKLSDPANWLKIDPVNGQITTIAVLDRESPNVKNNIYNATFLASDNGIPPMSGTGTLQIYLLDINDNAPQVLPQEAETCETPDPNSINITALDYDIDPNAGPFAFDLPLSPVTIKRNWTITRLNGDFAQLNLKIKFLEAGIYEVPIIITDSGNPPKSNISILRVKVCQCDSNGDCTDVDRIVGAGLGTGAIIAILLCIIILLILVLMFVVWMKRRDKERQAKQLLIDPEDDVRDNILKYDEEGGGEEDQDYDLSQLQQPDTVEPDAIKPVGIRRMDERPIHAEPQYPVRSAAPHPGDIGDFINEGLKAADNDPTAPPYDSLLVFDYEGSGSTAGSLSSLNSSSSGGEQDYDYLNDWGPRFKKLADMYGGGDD

- percent of pro-cadherin molecules in a complex with α-catenin (pro-N-cadherin (human)): 92%
- percent of pro-cadherin molecules in a complex with α-catenin (pro-E-cadherin (human)): 81%
Substance: α-catenin (from UniProt P35221 1-906) (natural protein)
